Substitutions are numbered along the chain they refer to.
B1: 21C7 (antibody, IgG1, V domains shown)
VH: QIQLQQSGPELVKPGASVKISCKASGYAFSSSWMNWVKKRPGKGLEWIGRIYPGDGDANYNGKFKGKATLTADKSSSTAYMQLSSLTSEDSAVYFCAGEGHYYGSGYRWYLDVWGTGTTVTVSS
VL: DIQMTQSPASLSVSVGETVTITCRASENIYSNLAWYQQKQGKSPQLLVYAATNLADGVPSRFSGSGSGTQYSLKINSLQSEDFGSYYCQHFRGAPFTFGSGTKLEIK
B2: 14D4 (antibody, IgG1, V domains shown)
VH: QVQLQQPGAELVKPRASVKLSCKASGYTFTSYWMHWVKQRPGQGLEWIGMIHPNNGIPNYNEKFKSKATLTVDKSSTTAYMQLSSLTSEDSAVYHCAREGYYGSEGYFDVWGTGTTVTVSS
VL: QIVLTQSPAIMSASPGEKVTMTCSASSSISYIHWYQQKPGTSPKRWIYDTSKLASGVPARFSGSGSGTSYSLTISSMEAEDAATYYCHQRSTYPYTFGGGTKLEIK
B3: 4H4 (antibody, IgG1, V domains shown)
VH: QVQLQQSGAELARPGASVKLSCKASGYTFTSYGISWVKQRTGQGLEWIGEIYPRSGNTYYNEKFKGKATLTADKSSSTAYMELRSLTSEDSAVYFCARRRGAGDGFDYWGQGTTLTVSS
VL: DIQMTQTTSSLSASLGDRVTISCSASQGISNYLNWYQQKPDGTVKLLIYYTSSLHSGVPSRFSGSGSGTDYSLTISNLEPEDIATYYCQQYSKLPFTFGSGTKLEIK
B4: 4B1 (antibody, IgG1, V domains shown)
VH: B3 VH with K19R, I34L, S35I, V37L, N57S, K63W, S77N, Y80F, A102T, T114I
VL: B3 VL with S92I, K93E
B5: 8B4 (antibody, IgG1, V domains shown)
VH: B3 VH with S21P, N57T, R100I, G101S, A102S, D104S, F106V
VL: B3 VL with K93E, F96W, S100G
B6: 831 (antibody, V domains shown)
VH: DVQLQESGPDLVKPSQSLSVTCTVTGYSITSGYSWHWIRQFPGNKLEWMGYIHYSGSTNYNPSLKSRISITRDTSKNQFFLQLSSVTTEDTATYYCASGPHRYDGVWFAYWGQGTLVTVSS
VL: EIVLTQSPTTMAASPGEKITITCSASSSISSNYLHWYQQKPGFSPKLLIYRTSNLASGVPARFSGSGSGTSYSLTIGTMEAEDVATYYCQQGTNIPLTFGAGTKLEIK
B7: 16H2 (antibody, IgG1, V domains shown)
VH: EVQLQQSGPELVQPGASVKISCKASGYTFTDYYMIWVKQSHGKSLEWIGNINPNNGGTTYNQKFKGKATLTVDKSSSTAYMGLPSLTSEDSAVYYCARGGLRPLYFDYWGQGTTLTVSS
VL: NIVMTQSPKSMSMSVGERVTLSCKASENVDTYVSWYQQKPEQSPKLLIYGASNRYTGVPDRFTGSGSATDFTLTISSVQAEDLADYHCGQSYSYPLTFGAGTKLELI
B8: 24H7 (antibody, IgG1, V domains shown)
VH: QVQLQQSGAELVRPGASVTLSCKASGYTFTDYEIHWVKQTLVHGLEWIGPIDPDTGNTAYNQNLKGKAILTADKSSSTAYMELRSLTSEDSAVYYCTRGGYDSDWGFAYWGQGTLVTVSA
VL: DIVMTQATPSVPVTPGESVSISCRSSKSLLHSNGNTFLFWFLQRPGQSPQLLIYRMSDLASGVPDRFSGSGSGTAFTLRISRVEAEDVGIYYCMQHLEYPFTFGSGTKLEIK
B9: 6.2 (antibody, IgG1, V domains shown)
VH: EVKLVESGGGLVKPGGSLKLSCAASGFTLSSYGMSWVRQIPEKRLEWVASIRSDGNTYYPDSVKGRFIISRDNARNILYLQMSSLRSEDTAMYYCTRGGYYGSSPYYWGQGTTLTVSS
VL: DIVMSQSPSSLPVSVGEKISMTCKSSQSLLYSSNQKNYLAWYQQKPGQSPKLLIYWASTRDSGVPDRFIGSGSGTDFTLTINSVKAEDLAVYYCQQYYNYLTFGAGTKLELK

Assays:
[1] = biological target: full length human BTLA expressed in a Jurkat T cell line (human, UniProt Q7Z6A9 31-289); experiment: cell-based or functional assay
[2] = biological target: chimeric BTLA of humanised-BTLA mice (human extracellular region, murine transmembrane and signaling … (human; mouse, UniProt Q7TSA3 184-306, limits assumed); experiment: cell-based or functional assay
Sequence of chimeric BTLA of humanised-BTLA mice (human extracellular region, murine transmembrane and signaling … (Q7TSA3 other isoform, or with tags, fused parts or gaps mutant limits assumed): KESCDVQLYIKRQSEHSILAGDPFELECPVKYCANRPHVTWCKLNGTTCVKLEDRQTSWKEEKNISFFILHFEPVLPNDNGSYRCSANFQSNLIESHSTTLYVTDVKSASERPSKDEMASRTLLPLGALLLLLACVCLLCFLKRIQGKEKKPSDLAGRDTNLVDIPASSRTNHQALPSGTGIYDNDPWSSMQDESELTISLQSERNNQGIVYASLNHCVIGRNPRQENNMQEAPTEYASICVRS

Binder | T cell reporter (NFkB signaling), % inhibition [1] [%] | AntiCD3/CD28 (CD4 T cell proliferation) repeat 1, % inhibition [2] [%] | AntiCD3/CD28 (CD4 T cell proliferation) repeat 2, % inhibition [2] [%] | AntiCD3/CD28 (CD69+ CD4 T cells) repeat 1, % inhibition [2] [%] | AntiCD3/CD28 (CD69+ CD4 T cells) repeat 2, % inhibition [2] [%] | MLR (CD4 T cell proliferation) repeat 1, % inhibition [2] [%] | MLR (CD4 T cell proliferation) repeat 2, % inhibition [2] [%]
B1 | 23 | 10 | -4 | 39 | 35 | 8 | 17
B2 | 16 | 24 | 29 | 43 | 52 | 39 | 26
B3 | 25 | 14 | 22 | 43 | 52 | 10 | 17
B4 | 23 | 14 | 18 | 47 | 41 | 33 | 30
B5 | 24 | 20 | 4 | 51 | 47 | 33 | 23
B6 | 24 | 10 | 8 | 50 | 53 | 25 | 34
B7 | 29 | 11 | 23 | 51 | 60 | 40 | 26
B8 | 22 | 13 | 23 | 52 | 44 | 23 | 31
B9 | 26 | 19 | 21 | 53 | 61 | 31 | 35
